27 molecules from US20170165338A1 can be followed below.

Where only a bound is given, the exact number is not on record here.

This test addresses HLA-A*02 (human). Description: UV-exchange b2m ELISA.
Turning to KMPDVELFV, the peptide exchange yield is 50 to 75%.

As to SLGKFTFDV, the peptide exchange yield was more than 75%.

In the case of FIIQGLRSVGA, the peptide exchange yield was in the range of 50 to 75%.

With HLSTIIHEA, the peptide exchange yield is 50 to 75%.

Take FLLGVSKEV: the peptide exchange yield was in the range of 50 to 75%.

With GVVDPVHGV, the peptide exchange yield fell in the range of 20 to 49%.

Consider GLAVPTPSV, for which the peptide exchange yield was 50 to 75%.

SLDPDTLPAV gave a peptide exchange yield of 20 to 49%.

In turn, AIVDLIHDI showed a peptide exchange yield of 20 to 49%.

Molecule VLDPALPALV showed a peptide exchange yield of 20 to 49%.

With QMFQYFITV, the peptide exchange yield is more than 75%.

Consider FLERGLESA, for which the peptide exchange yield is 20 to 49%.

The molecule FTIFRTISV showed a peptide exchange yield of 50 to 75%.

Molecule SLADYEHFV had a peptide exchange yield of more than 75%.

For the molecule QLWQFLVTL, the peptide exchange yield lay in the range of 50 to 75%.

The molecule QLIQTLHAV had a peptide exchange yield of 50 to 75%.

SLDPSVTHL had a peptide exchange yield of 20 to 49%.

For RLQDILWFL, the peptide exchange yield was more than 75%.

For SLLGGTFVGI, the peptide exchange yield was in the range of 50 to 75%.

Consider ILGEVLAQL, for which the peptide exchange yield was in the range of 50 to 75%.

In turn, KVMATIEKV gave a peptide exchange yield of 20 to 49%.

For VTPVTVSAV, the peptide exchange yield was less than 20%.

In the case of KLDGNELDL, the peptide exchange yield lay within 50 to 75%.

Molecule ILLKNLVTI had a peptide exchange yield of 20 to 49%.

For the molecule VTSNSGILGV, the peptide exchange yield was 50 to 75%.

For the molecule ALLPRLHQL, the peptide exchange yield was more than 75%.

On to TQSPATLSV, for which the peptide exchange yield is 20 to 49%.
